Measurements published in the domain aggregation screens of Martell et al. (2025).

Experiment: soluble fraction after stress (log2 fold change); higher = more stays soluble; pooled small domains, quantitative proteomics
Conditions: stress: pH 4
Method in brief: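 After pH 4 stress, pooled custom libraries of small protein domains were quantified with high-throughput quantitative proteomics. Aggregation propensity is taken from the fold change in each domain's soluble amount following the acid stress. The scale is log2, where higher values mean more stayed soluble.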

| Sequence | soluble fraction (log2) |
| --- | --- |
| HMGKTKFTEMSALELKAYAELNNNSMHWVYRMLYIGGGDVGFRKGMKELGYSGKFIWMTLERLKKS | -0.583 |
| HMAVPTHVEFPVVGLQRSGITSLEQAIATVPGVSKAVVNVSDNRIFVDYDPTRSKVSDLLEVVRGAGFTP | -0.222 |
| HMKLEEITIIVPSLRLDNFVSDLARTSRSKAVQIIDSERVFINGQNETKASKQVKLGDVITSA | -0.767 |
| HMQATDEEIENFTSSAITAYKLTKEEGYIISMRDMKPIMEIVKTEYPMANGKVVSKVMNNYING | 0.22 |
| HMGGYLIGDVAQMVGLSRDALRFYEKKGIIRADKKENGYRYYSEDDIYRLMYILYHRKMNTSLEEIGGLMS | -0.478 |
| HMQISYDVPNLIGKSYEEVMTDPSILGEHFTVVLGETKTDEDTDAGVILHQDPAADSKVQDEVTPITVTVS | 0.0589 |
| HMKQYVEPASETEKMVVELWEKVLLTEKIGMHDDFFELGGHSLKAMRLISLYHQEFNVRLSLKSLFEKLK | -1.07 |
| HMQQNYREMHKVKKGETLFGIARRYEITVDQLIKANPDMNAVGYELKKGDYIFIPYPDGQKP | -0.116 |
| HMKHTVSVDRLQPGVFVSLGGLSWLDHPFLLNRFRLTDHDQIKVLRSLGVKEIEWDPTRSTAQPLPE | -0.724 |
| HMSLSEYLSAPVLEGQRNHALFSAVMQAREQGWDEWQIRTTIGAKAEADGLRHAEIAATIRSAMSREITP | -0.0425 |
| HMLPNLWVMGPGDHLWRVAEVAMTKHLGRPVANHEIDGYWRRLVALNRESLIDPDNPDLVFAGQVIELPPF | -2.2 |
| HMTSVPGTVVTNANLRGGPGTNYPIVGKAPAGTTVNVVESTADRTWYYLDTGSWIAAFLVKLS | -0.229 |
| HMTFDWAAYEISEKEIRVMSLVAEGFSNKEIAQELFLSEGTVRNYISNILEKLGLRDRTQLAVHYLKAV | -1.52 |
| HMDFVKGDTVVFIDAFMPDHLMTIHKVQGEGILLDGNHKFALAHLIRHASTVELNAKRRLSLTEQS | -0.685 |
| HMKYSNDEVERDLYVRGVIYQIGDLVENKLDGTSGEVVRRGPNYVQYTDGENFYKAFLSALQEQK | -1.04 |
| HMLTEERLQIITDTVNSRSSVTIAELSRILDVSPSTVKRDLNILAEAGKITKVRGGAIALGE | 0.164 |

| Sequence | soluble fraction (log2) |
| --- | --- |
| HMEANAYFDAYPDVAAEWARLSGSDEGKATLSAIGVTTPQQFAQYHYTTFGSKENRNAPVGYTP | -0.47 |
| HMSLTYTGKFILNHNNIDQSSFNINIYLVNKQTIIQITKPFYGNVLNIKFNEENDLIISPKQFS | -0.9 |
| HMIENITIELNKKALALDFELNKDLPEGVLETIPTLVSLMVRFDPLTVSYHFLRDYIDALLESNLNVDL | -0.56 |
| HMFPNQLLISRLSNQLSASERFAAVSSIAQLKNIDYDVLHVLVHTMNSDPNSNVRLAALEALSR | -0.313 |
| HMSFPFLMPNLEGLQLDQVRVILEENGLEIGQENYQPDSKFGPGTIINHQPSVDTVVQTGQKVNLQISGTD | -1.14 |
| HMENLFPDYTMQDYRIVRSELSSKFKVQTVPVTTATATENKIVRQEPEAGSRITEGMTVILYYSIGPE | 0.0963 |
| HMNPGHAERGKEIVEVFLRNNGELSMREIAEKSNITITQARRRVNKLLDQGIVEATAPVQSRNRKYRIK | 0.0708 |
| HMADKSLLELPGLDGDKVSALVTAGVRNVNDLADLATDELVEKTGFDEKTAADLIIAARAVVY | -0.283 |
| HMILESREKYLGEVLEVLVEEEKEGEYFGYSQNYLRVKFKLEEKNLINQLINIKIKSIEDDILIGEKEN | -2.36 |
| HMRSVEVAAEPGMVLEDRQTGFVGAVVAVEKSGGTHLVVLEDRHGLRRGFPLGPGFWLEGRPVVLAPPP | -0.141 |
| HMLNENNHGEWSIRMSNGLVVRLGRDELNRSLRRSIMAYAGLAPNYRSSIEYIDARYLGGVALKTF | -0.159 |
| HMLLSTHVVVAKEDVQIGTRLQPAMLQVVDWPSASPLKNPLTSIEQATDRVVNMPLVKGEPISMSKLAAKG | 0.0815 |
| HMPELTERELEVLLLTARGLPSSEAARLLFITRRTVAAHLTSIYGKLGARNKTEAVLAALKRGIIMLDQIG | -1.46 |
| HMISDQENDLNLKHLFDTADQNKDGLILESELKMLMTNLEINKETYDTVMKQITPAGMDYKTFSSL | -0.584 |
| HMGKMTSTLGVHIAAYRKEHGETVAQFASRSGVSVSSIRRIESGISDPSADLVWKISRHMGMTMDDLFKKM | -0.0972 |
| HMTETELYDEVNRLIGLHLSERDRMILIMRDRDEFEIDAIAARTGLSEGNIRLILSRARRTVREAYRNNI | -1.6 |
